{
  "source": "the RNAGym collection of RNA variant scans (doi:10.1073/pnas.2313332121)",
  "parents": {"B1": {"name": "TPR 5TU (parent)", "chain": "GGAUCUUCUCGAUCUAACAAAAAAGACAAAUCUGCCACAAAGCUUGAGAGCAUCUUCGGAUGCAGAGGCGGCAGCCUUCGGUGGCGCGAUAGCGCCAACGUUCUCAACUAUGACACGCAAAACGCGUGCUCCGUUGAAUGGAGUUUAUCAUG"}},
  "note": "This sample holds only a part of the variants without activity.",
  "data": [
    {"variants_of": "B1", "test": "polymerase ribozyme fitness, log enrichment relative to wild type (log ratio); higher = more active; in vitro selection for triplet polymerase activity", "summary_of_the_method": "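Both subunits of a heterodimeric triplet polymerase ribozyme were given their own mutant library, built by PCR and transcribed. Each library was annealed with a biotinylated primer, the partner subunit and triplets, incubated frozen at −7 °C, and its extended constructs gel-excised, captured on streptavidin beads and amplified by RT-PCR, all in one round done in triplicate. Fitness is the logarithm of genotype enrichment relative to wild-type enrichment, with replicates averaged by inverse-variance weighting. That logarithm is base 2, and Illumina-sequenced genotypes needed ≥10 input reads and ≥1 read per output.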", "values": [
      {"variant": "GGAUCUUCUCGAUCUAACACAAAAGACAAAUCUGCCACAAAGCUUGAGAGCAUCUUCGGAUGCAGAGGCGGCAGCCUUCGGUGGCGCGAUAGCGCCAUCGUUCUCAACUAUGACACGCAAAACGCGUGCUCCGUUGAAUGGAGUUUAUCAUG", "note": "[A20C A98U]", "polymerase ribozyme fitness (log ratio)": -1.29},
      {"variant": "GGAUCUUCUCGAUCUAACACAAAAGACAAAUCUGCCACAGAGCUUGAGAGCGUCUUCGGAUGCAGAGGCGGCAGCCUUCGGUGGAGCGAUAGCGCCAGCGUUCUCAACUAUGACACGCAAAACGCGUGCUCCGUUGAAUGGAGUUUAUCAUG", "note": "[A20C A40G A52G C85A A98G]", "polymerase ribozyme fitness (log ratio)": -4.01},
      {"variant": "GGAUCUUCUCGAUCUAACACAAAAGCCAACUCUGCCACAAAGCGUGAGAACAUCUUCGGAUGCAGCGGCGGCAGCCUUCGGUGGCGCGAUAGCGCCAACGUUCUCAACUAUGACACGCAAAACGCGUGCUCCGUUGAAUGGAGUUUAUCAUG", "note": "[A20C A26C A30C U44G G50A A66C]", "polymerase ribozyme fitness (log ratio)": "≤ -4.2"},
      {"variant": "GGAUCUUCUCGAUCUAACACAAAAGAUAAAUCUGCCACAAAGCUUGAGAGCAUCUUCGGAUGCAGAGGCGGCAGCCUUCGAUGGCACGAUAGCGCCAAGGUUCUCAACUAUGACACGCAAAACGCGUGCUCCGUUGAAUGGAGUUUAUCAUG", "note": "[A20C C27U G81A G86A C99G]", "polymerase ribozyme fitness (log ratio)": -2.96},
      {"variant": "GGAUCUUCUCGAUCUAACACAAAAGACAAAUCUGCAACAAAGCUUGAGAGCAUCUUCGGAUGCAGAGGCGGCAGCCUUCGGUGGCGCGAUAGCGCCAACGUUCUCAACUAUGACACGCAAAACGCGUGCUCCGUUGAAUGGAGUUUAUCAUG", "note": "[A20C C36A]", "polymerase ribozyme fitness (log ratio)": -4.06},
      {"variant": "GGAUCUUCUCGAUCUAACACAAAAGACAAAUCUGCCACAAAGCUUGCGAGCAUCUUCGGGUGCAGAGGCGGCAGCCUUCGGUGGAGCGAUAGCGCCAACGUUCUCAACUAUGACACGCAAAACGCGUGCUCCGUUGAAUUGAGUUUAUCAUG", "note": "[A20C A47C A60G C85A G140U]", "polymerase ribozyme fitness (log ratio)": "≤ -4.2"},
      {"variant": "GGAUCUUCUCGAUCUAACACAAAAGACAAAUCUGCCACUAAGCUUGAGAGCAUCUUCGGAUGCAGAGGCGGCAGCCUUCGGUGGCGCGAUAGCGCCAACGUUCUCGACUAUGACACGCAAAACGCGUGCUUCGUUGAUUGGAGUUUAUCAUG", "note": "[A20C A39U A106G C131U A138U]", "polymerase ribozyme fitness (log ratio)": "≤ -4.2"},
      {"variant": "GGAUCUUCUCGAUCUAACACAAAUGACAAAUCUGCCACAAAGCAUGAGAGCAUCUUCGGAUGCAGAGGCGGCAGCCUUCGGUGGCGCAAUAGUGCCAACGUUCUCAACUAUGACACGCAAAACGCGUGCUCCGUUGAAUGGAGUUUAUCAUG", "note": "[A20C A24U U44A G88A C93U]", "polymerase ribozyme fitness (log ratio)": "≤ -4.2"},
      {"variant": "GGAUCUUCUCGAUCUAACACAAAAGACAAGUCUGCCACAAAGCUUGAGAUCAUCUUCGGAUGCAGAGGCGGCAGCCUUCGGUGGCGCGAUAGCGGCAACGUUCUCAACUAUGACACGCAAAACGCGUGCUCCGUUGAAUGGAGUUUGUCAUG", "note": "[A20C A30G G50U C95G A147G]", "polymerase ribozyme fitness (log ratio)": "≤ -4.2"},
      {"variant": "GGAUCUUCUCGAUCUAACACAAAUGACAAAUCUGCCACAAAGCUUGAGAGCAUCUUCGGAUGCAGAGGCGGCAGCCUUCGGUGGCGCGAUAGUGCCAACGUUCUCAACUAUGACACGCAAAACGCGUGCGCCGUUGAAUGGAGUUUAUCGUG", "note": "[A20C A24U C93U U130G A150G]", "polymerase ribozyme fitness (log ratio)": "≤ -4.2"},
      {"variant": "GGAUCUUCUCGAUCUAACACAAAAGCCAAAUCUGCCACAAAGCUUGAGAGCAUCUUCGGAUGCAGAGGCGGCAGCCUUCGGUGGCGCGAUAGCGCCAACGUUCUCAACUAUGACACGCAAAACGCGUUCUCCGUUGAAUGGAGGUUAUCAUG", "note": "[A20C A26C G128U U144G]", "polymerase ribozyme fitness (log ratio)": "≤ -4.2"},
      {"variant": "GGAUCUUCUCGAUCUAACACAAUAGAAAAAUCUGCCACAAAGCUUGAGAGCAUCUUCUGAUGCAGAGGCGGAAGCCUUCGGUGGCGCGGUAGCGCCAAAGUUCUCACCUAUGACACGCAAAACGCGUGCUCCGUUGAAUGGAGUUUAUCAUG", "note": "[A20C A23U C27A G58U C72A A89G C99A A107C]", "polymerase ribozyme fitness (log ratio)": "≤ -4.2"},
      {"variant": "GGAUCUUCUCGAUCUAACACAAAAGACACAUCUGCCACAAAGCUUGAGAGCAUCUUCGGAUGCAGAGGCGGCAGCCUUCGGUGGCGGGAUAGCGCCAACGUUCUCAACUAUGACACGCAAAGCGCGUGCUCCGUUGAAUUGAGUUUAUCAUG", "note": "[A20C A29C C87G A122G G140U]", "polymerase ribozyme fitness (log ratio)": "≤ -4.2"},
      {"variant": "GGAUCUUCUCGAUCUAACACAAAAGACAAAUCUGCCACAAAGCUUGAGUGCAUCUUCGGCUGCAGAGGCGGCAGCCUUCGGUGGCGCGAUAGCGCCAACGUUCUCAACUAUGACACGCAAAACGCGUGCUCCGUUGAAUGGAGUUUAUCAUG", "note": "[A20C A49U A60C]", "polymerase ribozyme fitness (log ratio)": -3.14},
      {"variant": "GGAUCUUCUCGAUCUAACACAAAAGACAAAUCUGCCACAAAGCUUGAGAGCUUCUUCGGAUGCAGAGGCGGCAGCCUUCGGUGGCGCGAUAGUGAAAACGUUCUCAACAAUGACACGCAAAACGUGUGCUCCGUUGAAUGGAGUUUAUCAUG", "note": "[A20C A52U C93U C95A C96A U109A C125U]", "polymerase ribozyme fitness (log ratio)": "≤ -4.2"},
      {"variant": "GGAUCUUCUCGAUCUAACACAAAAGACAAAUCUGCCACAAAGCUUGCGAGCAUCUUCGGAUGCAGAGGCGGCAGCCUUCGGUGGCGCGAUAGCGCCAACGUUCUCAACUAUGACACGCAAAACGCGUGCUCCGUUGAAUGGAGUUUAUCAUG", "note": "[A20C A47C]", "polymerase ribozyme fitness (log ratio)": -0.462},
      {"variant": "GGAUCUUCUCGAUCUAACACAAAAGACAAAUCUGCCACAAAGCUUGAGGGCAUCUUCGGAUGCAGAGGCGGCAGCCUUCGGUGGCGCGAUAGCGCCAACGUUCUCAACUAUGACACGCAAAACGCGUGCUCCGUUGAAUGGAGUUUAUCAUG", "note": "[A20C A49G]", "polymerase ribozyme fitness (log ratio)": -0.512},
      {"variant": "GGAUCUUCUCGAUCUAACACAAAAGACAAAUCUGCUACAAAGCUUGAGAGCAUCUUCGGAUGCAGAGGCGGCAGCCUUCGGUGGGGCGAUAGCGCCAACGUUGUCAACUAUGACACGCAAAACGCGUGCUCCGUUGAAUGGAGUUUAUCAUG", "note": "[A20C C36U C85G C103G]", "polymerase ribozyme fitness (log ratio)": "≤ -4.2"},
      {"variant": "GGAUCUUCUCGAUCUAACACAAAAGACAAAUCUGCCACAAAGCUUGAGAGCAUCUUCGGAUGCAGAGGCGGCGGCCUUCGGUGGCGGGAUAGCGCCAACGUUCUCAACUAUGAUACGCAAAACGCGUGCUCCGUUGAAUGAAGUUUAUCAUG", "note": "[A20C A73G C87G C114U G141A]", "polymerase ribozyme fitness (log ratio)": "≤ -4.2"}
    ]}
  ]
}
